These results are taken from article PMC3438196.

For this experiment, the target named is Apobec3G E110K MAPPIT bait (human) (UniProt Q9HC16). Description: two-hybrid; MAPPIT (mammalian two-hybrid) in intact HEK293T cells: bait on the EpoR/leptin receptor chimera, prey on gp130 fragments, pXP2d2-rPAP1-luciferase reporter; fold induction of luciferase, Epo-stimulated (10 ng/ml hEpo) over unstimulated; 6-well or 96-well calcium phosphate transfection. For orientation: Reporter assays use an easily measured gene product as a stand-in for the process of interest.
Apobec3G E110K MAPPIT bait (human), sequence (Q9HC16 whole entry E110K, the tested form may be a part): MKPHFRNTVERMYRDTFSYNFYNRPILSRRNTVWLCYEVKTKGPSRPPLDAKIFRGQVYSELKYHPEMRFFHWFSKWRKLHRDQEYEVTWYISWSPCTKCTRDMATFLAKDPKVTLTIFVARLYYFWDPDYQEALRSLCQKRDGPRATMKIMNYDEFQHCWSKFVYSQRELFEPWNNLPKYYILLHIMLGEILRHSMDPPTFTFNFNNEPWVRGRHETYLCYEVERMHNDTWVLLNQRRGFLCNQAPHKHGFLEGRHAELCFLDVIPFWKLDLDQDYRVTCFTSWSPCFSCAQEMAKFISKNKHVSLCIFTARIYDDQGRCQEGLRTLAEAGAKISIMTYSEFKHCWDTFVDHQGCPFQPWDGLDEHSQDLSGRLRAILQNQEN

Turning to “Gagpol MAPPIT prey (pMG2-Gagpol) (natural protein)”, the MAPPIT signal, % of WT is 84 % of WT.
